Measurements from the DeepSol protein solubility set.

Assay: soluble on expression in E. coli; label from the status in PepcDB or PDB records

Sequence	soluble on expression in E. coli
MAHHHHHHMSVSVTEHRHGDMHHGTMRRRCLTRVLLAGPQGDLEALVSRMPRTWSLQQPLEMLQPEAVEEERANTASAAAATRTENAGLAGGKVPDKSAASVMISYSPVRATLPLAAAASEEERAEEDVVDVVAAVEEKAAMKADLHNSSGSAVEPPSLEGTPNVRLHAAQAPHEEQQEEGDCGVVVAHEAPALTEDGIPGADSAVVRAAEVAATLDIGSQLAEAAPCADRASLDSSAALPVSQVPE	not soluble
MGSDKIHHHHHHLNQPLTPQPIKTMTDKRQAILDTALALFVSQGFHGTSTASIAKQAGVATGTLFHHFPSKEALMESLFLTIKQQFADTLLLNTHKGSDLKLNALQLWQSAIDWSLDNPVKQLFFQQYSMSPMIAAKVRDQAMNSILGFISELIKQGQMEGLIAHYPLELMLENCHGQYLAATRFFIDNPHLGTNTRYRDASFELFWKAMQAD	not soluble
MGSDKIHHHHHHMATENKIKYFENREDWRKWLMDNFETEDEIWFVFPLKSSGEKSIAYNDAVEEALCFEWIDSTIKPLDKEHRIQRFTPRKPKSTYSQANKERLKWLLANKMIHPEFEDKIRTVLSDPFIFPNDIMDRLKEDEIAWRNYRHFSDAYKRIRIAYIEAARKRPEEFEKRLNNFICKVKENKMITGFGGIEKYY	not soluble
MGSDKIHHHHHHMTYKPKYDNLMENPKIRRWFENLKAKSILTATVYRRTLGYYCELEKTTPEQLLTDMEKLEFRDNFLDFVRRLEKEGKAGSYIVRYKKVLRSWAKFNGIDIKLDVNIANENESPTLDNERVPSKEELSRLLRKATSRGRVSIPIMAFSGFRPETLGNYEGTDGLRLGDIKELKISDEIEFTKIPATIMVKTRLSKARNQYFSFIGEEGITYIKEYLEERKKNGEELTYESPLLQFDVRGTKKNDFMRTMLVTRDIREAITTAGLKMRPYVLRAYFSTALDIAESKGLISHPWRQFIMGHKGDIEARYSTNKRLPPDMIEEMRESYRKCLKFLETRISDVSEDNAKLFLQQQLLSAVGYKQEEIDKLDLSSVSNEDFQQLLRDKVAGAMSDNGAKQKVIPVNEIEQYISDGYDFEAVLPNGKAVMRLRF	not soluble
MAHHHHHHMPLRIGGFNVCCYHDCTNAAAIHAELKRRHIDAAVVDHAFLISPLQLAVALFRVEGSADMLTTRSPFTISPPLAEASSPSPTSTSASPSLPPLLQQQPTRRVSNSRQIFAALSLSHNLDRILQVLPPGPQTTSVVIIYKRSGSARAAAVSFADDVGADSAVASTVPDGDGLDATINACVQLTNSAAQAHTFALITEPFWTGAAFAFADVSKVALFYGISESMLLAAQRSMTRADVRRVCVGAESQEAPAQVLRWHALEVCVTTLLSACTA	soluble
MNRIKSTLTALLLAGSFQASAADQTILNSSYDIARELFVAYNPVFAEHWQQKTGKTVEIKQSHAGSSAQARSILQGLAADVVTFNQVTDVQILHDKGKLIPANWQTLLPNASSPYYSTTAFLVRKGNPKNIQDWSDLVRDDVKSVFPNPKTSGNARYTYLAALGFAQKQFGQDNQVQQDEFLKKFLANVAVFDTGGRGATTSFVERGIGDVLITFESEVNNIRQQYGADDYQVVVPKTSILAEFPVAVVEKVAKRNGTYDVATEYVSYLYSEPAQRLLAEFNYRVHDAKVQAEFAERFPAVELLTVEGIAGGWEQAMQTQFANGAKLDQLLRR	not soluble
MEYGAICTPFIFVVYAKSKYLCVLISNEMGKNKLEKFADMASYPHVFEYPYSAVDNVPFDMKGKWHQEFFGNDHPIVLELGCGRGEYTVGLGRMFPDKNFIAVDIKGSRMWTGATESLQAGMKNVAFLRTNIEIIERFFAAGEVSEIWLTFSDPQMKKATKRLTSTYFMERYRKFLKPDGIIHLKTDSNFMFTYTKYMIEANQLPVEFITEDLYHSDLVDDILSIKTYYEQQWLDRGLNIKYIKFRLPQEGVLQEPDVEIELDPYRSYNRSKRSGLQTSK	not soluble
SGPWANICAGKSSNEIRTCDRHGCGQYSAQRSQRPHQGVDVLCSAGSTVYAPFTGMIVGQEKPYQNKNAINNGVRISGRGFCVKMFYIKPIKYKGPIKKGEKLGTLLPLQKVYPGIQSHVHIENCDSSDPTAYL	soluble
MSLDEVSQKPHERLAAWLAEDMAAVNGLIRERMASKHAPRIPEVTAHLVEAGGKRLRPLLTLAAARLCGYEGPYHIHLAATVEFIHTATLLHDDVVDESHRRRGKPTANLLWDNKSSVLVGDYLFARSFQLMVETGSLRVMDILANASATISEGEVLQLTAAQDLRTTEDIYLQVVRGKTAALFAAATEVGGVVAGVPEAQVEALHAYGDALGIAFQIVDDLLDYGGVDAQIGKNTGDDFRERKLTLPVIKAVAQADAEERAFWQRVIEKGDQREGDLEQAHAIMSRHGAMEAARQDALRWVTVAREALGQLPEHPLREMLHDLADFVVERIAEGHHHHHH	soluble
GGCYERIFAVPQQERTSLRVVTALAHGCDLVITRAGPTPRTYTPLQTQRFRNSLRSDAGCVIMMGDHVVSPAARLASAVVGYHGIGKGTGRIKAVEITVTGIAKGFYRTSRVIVGKHIAPAAEKTTMKVV	not soluble
MGSDKIHHHHHHMEHGTESFWTDIKRYEDILAKDPGSYCFAPLSELYRKVGLLDDAIMTARTGIGQHPEYVGGYMALGRACFEKGERTESRAALEKVVRVTPDNLLAQKLLSQIYVDAGESDLARRCLEIILSLSPGDLESKLMLDAMCRQPRENADRADDLFNEMGAAAAIDLEDESLLEEIEIIEELVDEVVDEEDLAAFTAHAPPPPLAEESFADVLLDEEPVANADVPSPRDVLSTGTVADLYIAQGFPKKALAIYRDLLDADPLNEDIRNRMVDLKKRIDEDEARARESVLAEAVSATDTTAQIQGDLTADREAFKEEAASGFAVESAHEVDIPLEVAVSAESSLNVAEEKEASAAHVVSALEGWLDSIRRIRQCRSVLH	not soluble
MVGTFLGTGASSGVPMLNCSCKVCTSSYSKNKRLRSSFFLESSSGIKLLIDTGPDIRQQLLREKIDRLDLVLYTHEHYDHIMGFDDIKFYTRCAPLNIYARDTAMAHIRNAFPYNFTSKPSLSGKADIIANVIRDFEPFFFKSLKIVPIPLIHGDIISLGYRVGNLAYLTDVKFIPEASYDYLKNLDLLIIDAMRIKPHPAHLNFSEAFCVIKKINPKISYFTHIAHDIMHEEFDYLEKDNIYLAYDGLKIYILEHHHHHH	not soluble
DKMTIEVPVLTFVPVQVSAELENRGCWVKFFDKKNFQGDSLFLSGPATLPRLIGPFGYDWENKVRSVKVGPRANLTIFDNHNYRDEDKFLDAGANVANLSKEMGFFDNFRSMVLNCI	soluble
MAKIKLPIVTINAKGGAQYVVEGVEAVNALTQLENYPERGIRIKVDGKMTVITEGCLCSAAVTGEVEVDVPEIVCEEVECEPISNILPNPKNPTDPGENSKPEEKAGEK	not soluble
MSLNQTILNRVKTRVMHQLVSSLIYENIVVYKASYQDGVGHFTIEGHDSEYRFTAEKTHSFDRIRITSPIERVVGDEADTTTDYTQLLREVVFTFPKNDEKLEQFIVELLQTELKDTQSMQYRESNPPATPETFNDYEFYAMEGHQYHPSYKSRLGFTLSDNLKFGPDFVPNVKLQWLAIDKDKVETTVSRNVVVNEMLRQQVGDKTYEHFVQQIEASGKHVNDVEMIPVHPWQFEHVIQVDLAEERLNGTVLWLGESDELYHPQQSIRTMSPIDTTKYYLKVPISITNTSTKRVLAPHTIENAAQITDWLKQIQQQDMYLKDELKTVFLGEVLGQSYLNTQLSPYKQTQVYGALGVIWRENIYHMLIDEEDAIPFNALYASDKDGVPFIENWIKQYGSEAWTKQFLAVAIRPMIHMLYYHGIAFESHAQNMMLIHENGWPTRIALKDFHDGVRFKREHLSEAASHLTLKPMPEAHKKVNSNSFIETDDERLVRDFLHDAFFFINIAEIILFIEKQYGIDEELQWQWVKGIIEAYQEAFPELNNYQHFDLFEPTIQVEKLTTRRLLSDSELRIHHVTNPLGVGGINDATTISETEGHHHHHH	soluble
MHHHHHHSSGVDLGTENLYFQSMSRVLQAEELHEKALDPFLLQAEFFEIPMNFVDPKEYDIPGLVRKNRYKTILPNPHSRVCLTSPDPDDPLSSYINANYIRGYGGEEKVYIATQGPIVSTVADFWRMVWQEHTPIIVMITNIEEMNEKCTEYWPEEQVAYDGVEITVQKVIHTEDYRLRLISLKSGTEERGLKHYWFTSWPDQKTPDRAPPLLHLVREVEEAAQQEGPHCAPIIVHCSAGIGRTGCFIATSICCQQLRQEGVVDILKTTCQLRQDRGGMIQTCEQYQFVHHVMSLYEKQLSHQS	soluble
MLRLDTRFLPGFPEALSRHGPLLEEARRRLLAKRGEPGSMLGWMDLPEDTETLREVRRYREANPWVEDFVLIGIGGSALGPKALEAAFNESGVRFHYLDHVEPEPILRLLRTLDPRKTLVNAVSKSGSTAETLAGLAVFLKWLKAHLGEDWRRHLVVTTDPKEGPLRAFAEREGLKAFAIPKEVGGRFSALSPVGLLPLAFAGADLDALLMGARKANETALAPLEESLPLKTALLLHLHRHLPVHVFMVYSERLSHLPSWFVQLHDESLGKVDRQGQRVGTTAVPALGPKDQHAQVQLFREGPLDKLLALVIPEAPLEDVEIPEVEGLEAASYLFGKTLFQLLKAEAEATYEALAEAGQRVYALFLPEVSPYAVGWLMQHLMWQTAFLGELWEVNAFDQPGVELGKVLTRKRLAG	soluble
KKIKVYIELDLGGPITVGFPTHISDGISLLGSTNIFDDISEAYFTPKDEEILKRDPDIIIYEPKRLTDYEKERFYSILRKRDLFQLLNKRLIFTKGDYLAHMGPSFITDVLIWLKSVL	not soluble
MASYSSILVLSVCTIGALAVMEHNSYYPGGHSTSYYQPFQTDTYGSKYYNTESYGKYDEHGNNGKDSHYEPNYYNPIASYYHSYMPKYHGGHNDYYTKYNQYTPYYGGSHQQNYYEQPKHDDYHGGDHHYDMHK	not soluble
MLWSGCRRFGARLGCLPGGLRVLVQTGHRSLTSCIDPSMGLNEEQKEFQKVAFDFAAREMAPNMAEWDQKELFPVDVMRKAAQLGFGGVYIQTDVGGSGLSRLDTSVIFEALATGCTSTTAYISIHNMCAWMIDSFGNEEQRHKFCPPLCTMEKFASYCLTEPGSGSDAASLLTSAKKQGDHYILNGSKAFISGAGESDIYVVMCRTGGPGPKGISCIVVEKGTPGLSFGKKEKKVGWNSQPTRAVIFEDCAVPVANRIGSEGQGFLIAVRGLNGGRINIASCSLGAAHASVILTRDHLNVRKQFGEPLASNQYLQFTLADMATRLVAARLMVRNAAVALQEERKDAVALCSMAKLFATDECFAICNQALQMHGGYGYLKDYAVQQYVRDSRVHQILEGSNEVMRILISRSLLQE	not soluble
MLNFLSISSEPKIKSLAIGKFDGLHLGHQALFKELKDPKALLIIEKKHYTKGYLTPLKYRAKLVGMPLFFVYLEEISQLNALDFLDLLKKKFPHLERLVVGYDFRFGHERQNDALFLKERFEKTIIVPEVKVQEISVHSKMIKLALSHGDLSLANKLLGRPYEVCGEVISDQGLGHKELAPTLNIKTKDFILPSFGVYASLVKIKDPIYQKSVSFIGNRLSTDQNFAIECHVLDTIIENPPQEIALRWVQKIRDNMRFSSLKELKNQIQQDILRAKEILR	not soluble
REATWVTEKPLTLKIHMHFRDKWVWDENWPVAREVARLTNVKLVGVANRAATNSQEQFNLMMASGQLPDIVGGDNLKDKFIRYGMEGAFIPLNKLIDQNAPNLKAFFKTHPEVQRAITAPDGNIYYLPYVPDGLVSRGYFIRQDWLDKLHLKTPQTVDELYTVLKAFKEKDPNGNGKADEIPFINRDPEEVFRLVNFWGARSTGSNTWMDFYVENGKIKHPFAEVAFKDGIKHVAQWYKEGLIDPEIFTRKARSREQTFGNNIGGMTHDWFASTALFNDALSKNIPGFKLVPMAPPINSKGQRWEEDARQIPRPDGWAITATNKNPVETIKLFDFYFGPKGRELSNFGVPGLTYDIKNGKPVYKDTVLKAAQPVNNQMYDIGAQIPIGFWQDYEYERQWTNDVALQGIDMYIKNKYVLPQFTGVNLTVEEREIYDKYWPDVKTYMFEMGQSWVMGTKDPEKTWNDYQQQLKNRGFYQVMIVMQKAYDRQY	soluble
